Source: article PMC11094138 (2024)

Molecular target: WDR5^22–334 (human, UniProt P61964 22-334)
Assay: ITC

| Kd [µM] | Binder |
| --- | --- |
| 1.8 | GSARAEVHLRK [MLL1 WIN motif MLL1^3762–3772] |
| 2 | GSRRAEVHLRK [MLL1^3762–3772_A3764R] |
